Results taken from patent publication US20260092093A1 (TJ BIOPHARMA SHANGHAI, published 2026).
Residue numbers refer to the chain shown, from its start. Each block holds one binder with its values, some of them ahead of it.

Tests used:
[1] = molecular target: T1, hIL-18Rα ECD-Fc fusion protein (human, UniProt Q13478 22-329); experiment: BLI (Octet RED96), hIL-18Rα ECD-Fc on Protein A sensor
T1 construct: extracellular domain; captured on Protein A sensor
T1 sequence (looked up): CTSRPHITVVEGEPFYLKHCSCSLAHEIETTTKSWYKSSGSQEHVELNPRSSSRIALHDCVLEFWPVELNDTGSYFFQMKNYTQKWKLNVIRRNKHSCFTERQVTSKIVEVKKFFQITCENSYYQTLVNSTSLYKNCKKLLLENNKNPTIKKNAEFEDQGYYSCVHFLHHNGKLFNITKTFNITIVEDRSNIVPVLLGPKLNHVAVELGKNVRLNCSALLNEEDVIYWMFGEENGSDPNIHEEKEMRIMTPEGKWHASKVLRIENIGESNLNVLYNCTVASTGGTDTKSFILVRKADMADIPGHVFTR
Method: The affinities of IL-18 variant polypeptides for hIL-18Rα were assessed by Biolayer Interferometry (BLI) on Octet RED96 using Protein A sensor coated with hIL-18Rα ECD-Fc fusion protein, and WT hIL-18 was used as a control.

[2] = molecular target: T2, recombinant hIL-18Rα extracellular domain (human, UniProt Q13478 22-329, biotin label (selection) or fluorescent probe (single-clone FACS), sites not given); experiment: single-clone FACS, yeast display, 10 nM labelled hIL-18Rα ECD
T2 construct: extracellular domain; also called hIL-18Rα ECD; hIL-18Rα-ECD
T2 sequence (looked up): T1 sequence (looked up)
Method: Following the screens described in Example 2, single clone FACS analysis was performed to verify the binding of selected yeast cell surface-expressed IL-18 variant polypeptides from Round 4 and Round 5 to 10 nM hIL-18Rα-ECD. Briefly, each yeast clone at the same density was incubated with 10 nM IL-18Rα-ECD labeled by fluorescent probe, respectively, followed by washing step. Then the ratio of fluorescent positive IL-18Rα ECD binding yeasts in the population of each clone were analyzed.

B3: SEQ ID NO 18 (ligand)
chain: YLPKLRSKLSVIRNLNDQVLFIDQGNRPLFEDMTDSDCRDNAPRTIFIISMYKWSTSRGMAVTISVKCEKISTLSCENKIISFKEMNPPDSIKDTKSDIIFFQSSVPGHDNKMQFESSSYEGYFLACEKERDLFKLILKKEDELGDRSIMFTVQKED
% of fluorescence positive cells [2]: 92%

B4: SEQ ID NO 5 (ligand)
chain: B3 chain with L2F, W54H, S57V, S91V, S104R, K155N
% of fluorescence positive cells [2]: 95.6%

B6: SEQ ID NO 34 (ligand)
chain: B3 chain with L2F, R6K, W54Q, S57W, S91C, S104R, K155N
% of fluorescence positive cells [2]: 88.6%

B7: IL-18 variant polypeptide LM3 (ligand)
chain: B3 chain with L2F, V11I, W54G, T56G, S57A, S91G, S104R, K155N
notes: soluble, E. coli-made
Kd [1]: 0.0146 µM
Response (nm) [1]: 0.0422 nm
koff [1]: 0.0328 s⁻¹
kon [1]: 2.24e+06 M⁻¹ s⁻¹

B8: IL-18 variant polypeptide WM6 (ligand)
chain: B3 chain with L2F, P3D, R6K, W54D, T56Q, S57P, S104R, K155N
notes: soluble, E. coli-made
Kd [1]: 0.0101 µM
Response (nm) [1]: 0.304 nm
koff [1]: 0.00199 s⁻¹
kon [1]: 196000 M⁻¹ s⁻¹

B12: IL-18 variant polypeptide M6 (ligand)
chain: B3 chain with L2F, S57P, S91V, S104T, K155N
% of fluorescence positive cells [2]: 79%

B14: SEQ ID NO 24 (ligand)
chain: B3 chain with L2F, P3D, R6G, T56P, S57W, S91N, S104R, K155N
% of fluorescence positive cells [2]: 90.1%

B15: SEQ ID NO 33 (ligand)
chain: B3 chain with L2F, P3G, R6K, W54L, S57R, S91P, S104R, K155N
% of fluorescence positive cells [2]: 88.8%

B18: SEQ ID NO 6 (ligand)
chain: B3 chain with L2F, R6S, T56P, S57W, S91D, S104R, K155N
% of fluorescence positive cells [2]: 95.5%

B19: SEQ ID NO 19 (ligand)
chain: B3 chain with L2F, T56Y, S57P, K155N
% of fluorescence positive cells [2]: 97.9%

B20: SEQ ID NO 20 (ligand)
chain: B3 chain with L2F, R6K, W54F, S57V, S91G, S104H, K155N
% of fluorescence positive cells [2]: 91.7%

B21: SEQ ID NO 40 (ligand)
chain: B3 chain with L2F, R6K, W54L, T56G, S57A, S91V, S104R, K155N
% of fluorescence positive cells [2]: 87.9%

B22: SEQ ID NO 30 (ligand)
chain: B3 chain with L2F, R6K, W54H, T56I, S57H, S91V, S104V, K155N
% of fluorescence positive cells [2]: 89.7%

B23: IL-18 variant polypeptide MM4 (ligand)
chain: B3 chain with L2F, W54L, S57I, S91G, S104R, K155N
notes: soluble, E. coli-made
Kd [1]: 0.00982 µM
Response (nm) [1]: 0.0238 nm
koff [1]: 0.0375 s⁻¹
kon [1]: 3.82e+06 M⁻¹ s⁻¹

B25: IL-18 variant polypeptide WM10 (ligand)
chain: B3 chain with L2F, R6K, W54D, T56Q, S57P, S104R, K155N
notes: soluble, E. coli-made
Kd [1]: 0.0129 µM
Response (nm) [1]: < 0.02 nm
koff [1]: 0.007 s⁻¹
kon [1]: 543000 M⁻¹ s⁻¹

B27: SEQ ID NO 10 (ligand)
chain: B3 chain with L2F, P3T, R6K, T56S, S57D, S91A, S104V, K155N
% of fluorescence positive cells [2]: 94.8%

B28: SEQ ID NO 25 (ligand)
chain: B3 chain with L2F, R6K, W54L, T56G, S57V, S91T, S104R, K155N
% of fluorescence positive cells [2]: 90%

B29: IL-18 variant polypeptide M36 (ligand)
chain: B3 chain with L2F, R6S, W54A, T56D, S57Q, S91G, S104R, K155N
% of fluorescence positive cells [2]: 14.8%

B30: SEQ ID NO 14 (ligand)
chain: B3 chain with L2F, W54Y, S57A, S91V, S104H, K155N
% of fluorescence positive cells [2]: 93.2%

B35: SEQ ID NO 23 (ligand)
chain: B3 chain with L2F, R6K, W54G, T56G, S57T, S91A, S104R, K155N
% of fluorescence positive cells [2]: 90.8%

B36: SEQ ID NO 7 (ligand)
chain: B3 chain with L2F, R6K, W54H, S57V, S91V, S104R, K155N
% of fluorescence positive cells [2]: 95.5%

B37: IL-18 variant polypeptide WM2 (ligand)
chain: B3 chain with L2F, W54D, T56Q, S57P, S91N, K96E, S104R, K155N
notes: soluble, E. coli-made
Response (nm) [1]: < 0.02 nm

B38: SEQ ID NO 32 (ligand)
chain: B3 chain with L2F, W54H, T56S, S57R, S91I, S104Y, K155N
% of fluorescence positive cells [2]: 88.9%

More lines, now with the values ahead:

Kd [1]: 0.0862 µM
Response (nm) [1]: 0.0618 nm
koff [1]: 0.047 s⁻¹
kon [1]: 545000 M⁻¹ s⁻¹
B1: IL-18 variant polypeptide LM1 (ligand)
chain: B3 chain with L2F, R6K, W54G, T56G, S57A, S91N, S104R, K155N
notes: soluble, E. coli-made

% of fluorescence positive cells [2]: 89.5%
B2: SEQ ID NO 31 (ligand)
chain: B3 chain with L2F, R6K, T56A, S57R, S91P, K155N

% of fluorescence positive cells [2]: 93%
B5: SEQ ID NO 16 (ligand)
chain: B3 chain with L2F, R6T, W54H, S57Y, S91A, S104R

% of fluorescence positive cells [2]: 91.6%
B9: IL-18 variant polypeptide MM1 (ligand)
chain: B3 chain with L2F, R6K, W54L, S57Q, S91V, S104R, K155N

% of fluorescence positive cells [2]: 88.5%
B10: SEQ ID NO 36 (ligand)
chain: B3 chain with L2F, T56R, S57P, S104Y, K155N

% of fluorescence positive cells [2]: 93.2%
B11: SEQ ID NO 13 (ligand)
chain: B3 chain with L2F, T56K, S57T, S91V, S104Y, K155N

% of fluorescence positive cells [2]: 88.4%
B13: SEQ ID NO 37 (ligand)
chain: B3 chain with L2F, W54G, T56G, S57I, S91G, S104R, K155N

Response (nm) [1]: < 0.02 nm
B16: IL-18 variant polypeptide WM8 (ligand)
chain: B3 chain with L2F, W54D, T56Q, S57P, S104R, K155N
notes: soluble, E. coli-made

Kd [1]: 0.104 µM
Response (nm) [1]: 0.0326 nm
koff [1]: 0.077 s⁻¹
kon [1]: 743000 M⁻¹ s⁻¹
B17: IL-18 variant polypeptide MM5 (ligand)
chain: B3 chain with L2F, P3G, R6G, W54L, S57E, S91G, K155N
notes: soluble, E. coli-made

Kd [1]: 0.00417 µM
Response (nm) [1]: 0.0262 nm
koff [1]: 0.0169 s⁻¹
kon [1]: 4.06e+06 M⁻¹ s⁻¹
B24: IL-18 variant polypeptide LM4 (ligand)
chain: B3 chain with L2F, R6K, W54H, T56Y, S91N, S104R, K155N
notes: soluble, E. coli-made

% of fluorescence positive cells [2]: 93%
B26: SEQ ID NO 15 (ligand)
chain: B3 chain with L2F, W54S, T56R, S57G, S91V, S104T, K155N

% of fluorescence positive cells [2]: 73.4%
B31: IL-18 variant polypeptide M8 (ligand)
chain: B3 chain with L2F, T56P, S57A, S91A, S104L, K155N

Kd [1]: 0.0196 µM
Response (nm) [1]: 0.038 nm
koff [1]: 0.0411 s⁻¹
kon [1]: 2.1e+06 M⁻¹ s⁻¹
B32: IL-18 variant polypeptide LM5 (ligand)
chain: B3 chain with L2F, P3G, T56S, S57Q, S91N, S104R, K155N
notes: soluble, E. coli-made

% of fluorescence positive cells [2]: 89.7%
B33: SEQ ID NO 29 (ligand)
chain: B3 chain with L2F, R6T, W54H, T56Y, S57A, S91V, S104R, K155N

Kd [1]: 0.0379 µM
Response (nm) [1]: 0.0338 nm
koff [1]: 0.052 s⁻¹
kon [1]: 1.37e+06 M⁻¹ s⁻¹
B34: IL-18 variant polypeptide LM2 (ligand)
chain: B3 chain with L2F, W54L, T56G, S91V, S104R, K155N
notes: soluble, E. coli-made
